Measured values as given in US20110091971A1, “Differentiation of Pluripotent Stem Cells” (priority 2008, published 2011).

Assays:
[1] = tested on: Human Embryonic Stem Cells (H1 hESC line); assay: RT-PCR of PDX1 and CDX2 at conclusion of third step of differentiation (Example 12); format: cell-based; details: end of third step; peptide given during first step
Description: At the conclusion of the first step of the differentiation protocol, replicate sets of parallel wells for each treatment group were subjected to further step-wise differentiation. It is important to note that after the first three days, all wells undergoing continuing culture and differentiation received the same treatment. The protocol for this continuing differentiation is described below. […]
RT-PCR Analysis: RNA samples were purified by binding to a silica-gel membrane (Rneasy Mini Kit, Qiagen, CA) in the presence of an ethanol-containing, high-salt buffer followed by washing to remove contaminants. […] Yield and purity were assessed by A260 and A280 readings on a spectrophotometer. […]
(§1) Unless otherwise stated, all reagents were purchased from Applied Biosystems. […] For each primer/probe set, a Ct value was determined as the cycle number at which the fluorescence intensity reached a specific value in the middle of the exponential region of amplification. Relative gene expression levels were calculated using the comparative Ct method. […] The normalized amount of target was calculated as 2-ΔCt, assuming amplification to be 100% efficiency. […]

[2] = tested on: Human Embryonic Stem Cells (H1 hESC line); assay: RT-PCR of pancreatic differentiation markers at conclusion of step four of differentiation (Example 12); format: cell-based; details: end of step four; relative to commercial activin A or ACTN1
Procedure: Step 4 of the differentiation protocol was carried out over three days. Cells were fed daily by aspirating the medium from each well and replacing with a fresh aliquot (0.5 ml) of DMEM-high glucose supplemented with 1% B27, 100 ng/ml Noggin, 100 ng/ml Netrin-4 (R&D Systems; Cat #), 1 μM DAPT, and 1 μM Alk 5 inhibitor (Axxora; Cat #ALX-270-445). At the conclusion of the fourth step of differentiation, cells from some wells were harvested for analysis by RT-PCR to measure markers of differentiation.
RT-PCR Analysis: RNA samples were purified by binding to a silica-gel membrane (Rneasy Mini Kit, Qiagen, CA) in the presence of an ethanol-containing, high-salt buffer followed by washing to remove contaminants. The RNA was further purified using a TURBO DNA-free kit (Ambion, INC), and high-quality RNA was then eluted in water. Yield and purity were assessed by A260 and A280 readings on a spectrophotometer. […]
as §1

Molecule	RT-PCR results for PDX1 and CDX2 [1]	expression of downstream pancreatic differentiation markers (RT-PCR) [2]
ACTN4: activin A variant peptide, SEQ ID 5 (protein) GLECDGKVNLCCKKQLFVSFKDIGWNDWIIAPSGYHANHCSGLCPSHIAGTSGSSLSFHSTVINHYRMRGHSPFSDMGACCVPTKLRPMSMLYYDDGQNIIKKDIQNMIVEECGCS	in agreement	comparable expression
ACTN48: activin A variant peptide, SEQ ID 49 (protein) GLECDGKVNLCCKKQNFVSFKDIGWNDWIIAPSGYHANECSGLCPSHIAGTSGSSLSFHSTVINHYRMRGHSPFANMGACCIPTKLRPMSMLYYDDGQNIIKKDIQNMIVEECGCS	in agreement	comparable expression
